{
  "source": "patent US20220089765A1",
  "about": "“CD31 COMPETITORS AND USES THEREOF” (ENCEFA, priority 2019, published 2022)",
  "key": {"[1]": {"system": "midbrain dopaminergic (TH+) neurons", "assay": "MPP+ intoxication model in midbrain cell cultures, survival of DA (TH+) neurons", "type": "cell-based, Wistar rat", "protocol": "For this purpose, spontaneously occurring DA cell death was prevented by a treatment combining depolarizing concentrations of K^+ (30 mM) and MK801 (5 μM), a glutamate receptor antagonist used to prevent unwanted excitotoxic insult. The cultures were then exposed to 3 μM MPP between 5 and 7 days in vitro (DIV) to achieve a loss of approximately 50% of DA neurons.\nAnimals were treated in accordance with the Guide for the Care and Use of Laboratory Animals (National Research Council, 1996), European Directive 86/609, and the guidelines of the local institutional animal care and use committee. Cultures were prepared from the ventral mesencephalon of gestational age 15.5 Wistar rat embryos (Janvier Breeding Center, Le Genest St Isle, France). Dissociated cells in suspension obtained by mechanical trituration of midbrain tissue pieces were seeded at a density of 1.2-1.5×10^5 cells/cm^2 onto tissue culture supports precoated with 1 mg/mL polyethylenimine diluted in borate buffer pH 8.3 as described (Michel et al., 1997. J Neurochem. 69(4):1499-507). The cultures were then maintained in N5 medium supplemented with 5 mM glucose, 5% horse serum, and 0.5% fetal calf serum, except for the first 3 DIV, when the concentration of fetal calf serum was 2.5% to favor initial maturation of the cultures (Guerreiro et al., 2008. Mol Pharmacol. 74(4):980-9). They were fed daily by replacing 70% of the medium. Routinely, mesencephalic cultures were established on Nunc 24-well culture plates (Thermofischer Scientific, Rochester, N.Y.). Note that these cultures contain tyrosine hydroxylase (TH)^+ neurons that were exclusively dopaminergic (Traver et al., 2006. Mol Pharmacol. 70(1):30-40). TH^+ neurons represented approximately 1-2% of the total number of neuronal cells present in these cultures. The evaluation of the survival of DA neurons was performed by counting cells immunopositive for TH as described (Toulorge et al., 2011. Faseb J. 25(8):2563-73).\nTreatments with MPP were performed in cultures where the spontaneous death process was prevented by long-term exposure to depolarizing concentrations of K^+ (30 mM), in the presence of the glutamate receptor antagonist MK801 (5 μM) to prevent unwanted excitotoxic insults as described previously (Douhou et al., 2001. J Neurochem. 78(1): 163-74). Treatments with MPP and potential neuroprotective molecules were carried out between 5 and 7 DIV.\nThe cultures were fixed for 12 min using 4% formaldehyde in Dulbecco's phosphate-buffered saline (PBS), then washed twice with PBS before an incubation step at 4° C. for 24 h with the following antibodies. A monoclonal anti-TH antibody diluted 1/5000 (ImmunoStar, Inc., Hudson, Wis.) was used to assess the survival of DA neurons. Antibody was diluted in PBS containing 0.2% Triton X-100. Detection of the primary antibodies was performed with an Alexa Fluor-488 conjugate of an anti-mouse IgG antibody."}, "IL-10": {"system": "IL-10", "assay": "IL-10 levels in mice after intravenous injection (plasma ELISA)", "conditions": "mouse", "protocol": "To test whether the anti-inflammatory properties of agonistic anti-CD38 antibodies were also observe in vivo, we intravenously injected anti-CD38 antibody clone HB7 (15 mg/kg) to mice.\nBlood samples collected in collection tube (Microvette® 500 EDTA-K3, […]) were centrifuged at 3000 rotations per minute during 15 minutes. Supernatants (plasma) were collected and transferred into tubes and froze at −80° C. for further analysis. IL-10 levels in plasma samples were assayed using an ELISA IL-10 kit (BioLegend®) according to the indications for use specified by the manufacturer."}},
  "data": [
    {"molecule": "sCD31: soluble form of CD31; murine sCD31 with SEQ ID NO: 3 (protein, Soluble CD31 (sCD31)) MLLALGLTLVLYASLQAEENSFTINSIHMESLPSWEVMNGQQLTLECLVDISTTSKSRSQHRVLFYKDDAMVYNVTSREHTESYVIPQARVFHSGKYKCTVMLNNKEKTTIEYEVKVHGVSKPKVTLDKKEVTEGGVVTVNCSLQEEKPPIFFKIEKLEVGTKFVKRRIDKTSNENFVLMEFPIEAQDHVLVFRCQAGILSGFKLQESEPIRSEYVTVQESFSTPKFEIKPPGMIIEGDQLHIRCIVQVTHLVQEFTEIIIQKDKAIVATSKQSSEAVYSVMAMVEYSGHYTCKVESNRISKASSIMVNITELFPKPKLEFSSSRLDQGELLDLSCSVSGTPVANFTIQKEETVLSQYQNFSKIAEESDSGEYSCTAGIGKVVKRSGLVPIQVCEMLSKPSIFHDAKSEIIKGHAIGISCQSENGTAPITYHLMKAKSDFQTLEVTSNDPATFTDKPTRDMEYQCRADNCHSHPAVFSEILRVRVIAPVDEVVISILSSNEVQSGSEMVLRCSVKEGTSPITFQFYKEKEDRPFHQAVVNDTQAFWHNKQASKKQEGQYYCTASNRASSMRTSPRSSTLAVRVFL", "values": [
      {"measurement": "EC50 of prevention of MPP+-induced DA cell loss", "setting": "[1]; 3 μM MPP+ between 5 and 7 DIV, sCD31 during the intoxication period", "result": 0.036, "unit": "µg/mL"},
      {"measurement": "neuroprotective effect against MPP+-induced DA cell death", "setting": "[1]; 3 μM MPP+ between 5 and 7 DIV, test substance up to 1 μg/mL", "result": "prevented"},
      {"measurement": "neuroprotective effect in the presence of antagonistic anti-CD38 antibody clone AT13/5", "setting": "[1]; 3 μM MPP+, test substance 1 μg/mL, AT13/5 1 μg/mL", "result": "antagonized"},
      {"measurement": "neuroprotective effect in the presence of anti-CD31 antibody clone Moon-1", "setting": "[1]; 3 μM MPP+, test substance 1 μg/mL, Moon-1 1 μg/mL", "result": "antagonized"},
      {"measurement": "neuroprotective effect in the presence of antagonistic anti-CD38 antibody clone OKT10", "setting": "[1]; 3 μM MPP+, test substance 1 μg/mL, OKT10 1 μg/mL", "result": "antagonized"},
      {"measurement": "neuroprotective effect in the presence of endosidin2", "setting": "[1]; 3 μM MPP+, test substance 1 μg/mL, endosidin2 40 μM", "result": "antagonized"},
      {"measurement": "neuroprotective effect in the presence of the tyrosine kinase inhibitor genistein", "setting": "[1]; 3 μM MPP+, test substance 1 μg/mL, genistein 10 nM", "result": "antagonized"},
      {"measurement": "neuroprotective effect in the presence of the lysosomal exocytosis inhibitor vacuolin-1", "setting": "[1]; 3 μM MPP+, test substance 1 μg/mL, vacuolin-1 10 μM", "result": "antagonized"},
      {"measurement": "release of IL-10 in vivo (conclusion in words)", "setting": "IL-10", "result": "strong release"}
    ]}
  ]
}
